# Results published in US20130273567A1, “Screening Method for Candidate Agonist Compounds for Adiponectin Receptor I” (priority 2010, published 2013).
# B1: adiponectin: recombinant murine full-length adiponectin, internal ligand of adiponectin receptor 1 (protein, UniProt Q60994 1-247, looked up)
# chain: MLLLQALLFLLILPSHAEDDVTTTEELAPALVPPPKGTCAGWMAGIPGHPGHNGTPGRDGRDGTPGEKGEKGDAGLLGPKGETGDVGMTGAEGPRGFPGTPGRKGEPGEAAYVYRSAFSVGLETRVTVPNVPIRFTKIFYNQQNHYDGSTGKFYCNIPGLYYFSYHITVYMKDVKVSLFKKDKAVLFTYDQYQEKNVDQASGSVLLHLEVGDQVWLQVYGDGDHNGLYADNVNDSTFTGFLLYHDTN
# modifications: full-length
# System: C2C12 myocytes
# Assay: Mitochondrial content assay in C2C12 myocytes (mtDNA copy number, MitoTracker Green)
# Assay type: cell-based, mouse
# Description: Mice used were from 8 to 10 week old at the time of the experiment. […] Induction of myogenic differentiation using C2C12 cells was carried out according to the method described in the following document (Nature Med. 8, 1288-1295 (2002)). By day 5, the cells had differentiated into multinucleated contracting myocytes. C2C12 myocytes were used after myogenic differentiation in all experiments.
# The mouse C2C12 myoblasts were grown in 90% Dulbecco's modified high glucose Eagle's medium containing 10% (v/v) fetal bovine serum. When the cells reached 80% confluent, the myoblasts were induced to differentiate into myocytes by replacing the medium with a low serum differentiation medium (98% Dulbecco's modified high glucose Eagle's medium, 2.5% (v/v) horse serum). The medium was changed daily. The C2C12 cells were transfected by using Pofectamine 2000 (Invitrogen) and following the manufacturer's instructions.
# Mitochondrial content assays were carried out as described in the following document (Cell Metab. 4, 75-87 (2006)), with slight modifications. Quantification of the mitochondrial content was conducted by using mtDNA and MitoTracker Green probe (Molecular Probes) according to the method as described in the following document (Obes. Res. 13, 574-581 (2005)). MitoTracker Green probe preferentially accumulates in mitochondria regardless of the mitochondrial membrane potential and provides an accurate assessment of mitochondrial mass. Cells were washed with PBS and after addition of 100 nM MitoTracker Green FM (Molecular Probes), incubated at 37° C. for 30 min. Cells were harvested by using trypsin/EDTA and resuspended in PBS. Fluorescence intensity was detected with excitation and emission wavelengths of 490 and 516 nm, respectively, and the values thus measured were corrected for total protein (mg/ml).
# [1] = C2C12 myocytes incubated with 30 μg/ml adiponectin
molecule,measurement,setting,value
B1,mitochondrial biogenesis,C2C12 myocytes expressing PGC-1α-R13 mutant,failed to further induce
same,amount of mitochondria as assessed by MitoTracker green,[1],increased
same,mitochondrial DNA content,[1],increased
